One block for each binder: values may come before it.
Key:
[1] = target: T1, IgE-Fc (UniProt P01854-1 104-428, limits assumed); experiment: SPR (Biacore), steady state analysis, one-to-one binding model, derCD23 0-4 µM over α-Cε4 Fab captured IgE-Fc
T1 construct: domain: IgE-Fc; In SPR it was captured on the chip by the α-Cε4 Fab; also called α-Cε4 Fab captured IgE-Fc; IgE-Fc-A488
Method: (§1) An α-Cε4 Fab CM5 sensor surface was prepared using amine-coupling and a mock amine-coupled surface was used as a reference-subtraction control. […] Injections were performed at a flow rate of 25 μl·min⁻¹ in a running buffer of 10 mM HEPES, pH 7.4, 150 mM NaCl, 4 mM CaCl₂, and 0.005% (v/v) surfactant P-20 (GE Healthcare).

[2] = target: T1, IgE-Fc; experiment: SPR (Biacore T200), monophasic kinetic fitting, derCD23 4000 nM to 31 nM over α-Cε4 Fab captured IgE-Fc, pH 7.4, 4 mM CaCl2
Method: as §1

[3] = target: IgE (NIP IgE, AbD Serotec) (Homo sapiens (Human)), P01854; experiment: cell-based or functional assay
Sequence of IgE (NIP IgE, AbD Serotec) (Homo sapiens (Human)), P01854 (P01854 other isoform, or with tags, fused parts or gaps limits assumed): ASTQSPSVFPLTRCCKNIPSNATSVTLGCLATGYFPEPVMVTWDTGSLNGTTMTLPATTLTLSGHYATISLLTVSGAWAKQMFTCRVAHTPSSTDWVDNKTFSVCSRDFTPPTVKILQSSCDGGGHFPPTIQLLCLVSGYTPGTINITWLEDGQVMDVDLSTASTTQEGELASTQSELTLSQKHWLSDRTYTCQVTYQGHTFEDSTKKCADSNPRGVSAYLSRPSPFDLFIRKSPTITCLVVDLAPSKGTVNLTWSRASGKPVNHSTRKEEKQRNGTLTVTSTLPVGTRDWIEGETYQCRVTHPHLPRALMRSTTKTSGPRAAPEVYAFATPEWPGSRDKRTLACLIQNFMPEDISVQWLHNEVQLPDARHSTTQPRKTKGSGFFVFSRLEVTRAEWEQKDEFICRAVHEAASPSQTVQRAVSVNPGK

[4] = target: T1, IgE-Fc; experiment: flow cytometry competition: 1 nM IgE-Fc-A488 binding to FcεRI on RBL SX-38 cells

T1 sequence (P01854 other isoform, or with tags, fused parts or gaps limits assumed): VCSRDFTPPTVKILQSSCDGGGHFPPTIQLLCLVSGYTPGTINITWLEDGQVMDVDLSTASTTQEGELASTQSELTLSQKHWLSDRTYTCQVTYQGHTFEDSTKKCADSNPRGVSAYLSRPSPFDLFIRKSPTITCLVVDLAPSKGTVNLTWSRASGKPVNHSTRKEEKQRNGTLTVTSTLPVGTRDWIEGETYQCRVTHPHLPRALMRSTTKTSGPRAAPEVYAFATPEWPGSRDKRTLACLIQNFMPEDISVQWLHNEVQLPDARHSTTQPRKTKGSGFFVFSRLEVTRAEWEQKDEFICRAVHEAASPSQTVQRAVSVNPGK

B4: anti-IgE^4 (Fc fusion)
chain: EASDLLERLREEVTKLRMELQVSSGFVCNTCPEKWINFQRKCYYFGKGTKQWVHARYACDDMEGQLVSIHSPEEQDFLTKHASHTGSWIGLRNLDLKGEFIWVDGSHVDYSNWAPGEPTSRSQGEDCVMMRGSGRWNDAFCDRKLGAWVCDRLATCTPPASEGSAESMGPDSRPDPDGRLPTPSAPLHSGGGGSGGGGSGGGGSGGGGSASISAMVRSPRGPTIKPCPPCKCPAPNLEGGPSVFIFPPKIKDVLMISLSPIVTCVVVDVSEDDPDVQISWFVNNVEVHTAQTQTHREDYNSTLRVVSALPIQHQDWMSGKAFACAVNNKDLPAPIERTISKPKGSVRAPQVYVLPPPEEEMTKKQVTLTCMVTDFMPEDIYVEWTNNGKTELNYKNTEPVLDSDGSYFMYSKLRVEKKNWVERNSYSCSVVHEGLHNHHTTKSFSRTPGK
modifications: here or on the partner: In the flow-cytometry assays the IgE carried AlexaFluor-488 dye at unspecified positions. The letters do not show this.
IC50 of inhibition of IgE mediated degranulation [3]: 10 to 30 nM
efficacy of inhibition of IgE mediated degranulation of basophils [3]: 100%

B6: anti-IgE^0 (Fc fusion)
chain: EASDLLERLREEVTKLRMELQVSSGFVCNTCPEKWINFQRKCYYFGKGTKQWVHARYACDDMEGQLVSIHSPEEQDFLTKHASHTGSWIGLRNLDLKGEFIWVDGSHVDYSNWAPGEPTSRSQGEDCVMMRGSGRWNDAFCDRKLGAWVCDRLATCTPPASEGSAESMGPDSRPDPDGRLPTPSAPLHSASISAMVRSPRGPTIKPCPPCKCPAPNLEGGPSVFIFPPKIKDVLMISLSPIVTCVVVDVSEDDPDVQISWFVNNVEVHTAQTQTHREDYNSTLRVVSALPIQHQDWMSGKAFACAVNNKDLPAPIERTISKPKGSVRAPQVYVLPPPEEEMTKKQVTLTCMVTDFMPEDIYVEWTNNGKTELNYKNTEPVLDSDGSYFMYSKLRVEKKNWVERNSYSCSVVHEGLHNHHTTKSFSRTPGK
modifications: here or on the partner: In the flow-cytometry assays the IgE carried AlexaFluor-488 dye at unspecified positions. The letters do not show this.
IC50 of inhibition of IgE mediated degranulation [3]: > 300 nM
maximal efficacy of inhibition of IgE mediated degranulation of basophils [3]: 50%

B7: anti-IgE^0 (Fc fusion)
chain: EASDLLERLREEVTKLRMELQVSSGFVCNTCPEKWINFQRKCYYFGKGTKQWVHARYACDDMEGQLVSIHSPEEQDFLTKHASHTGSWIGLRNLDLKGEFIWVDGSHVDYSNWAPGEPTSRSQGEDCVMMRGSGRWNDAFCDRKLGAWVCDRLATCTPPASEGSAESMGPDSRPDPDGRLPTPSAPLHSASISAMVRSPRGPTIKPCPPCKCPAPNLEGGPSVFIFPPKIKDVLMISLSPIVTCVVVDVSEDDPDVQISWFVNNVEVHTAQTQTHREDYNSTLRVVSALPIQHQDWMSGKAFACAVNNKDLPAPIERTISKPKGSVRAPQVYVLPPPEEEMTKKQVTLTCMVTDFMPEDIYVEWTNNGKTELNYKNTEPVLDSDGSYFMYSKLRVEKKNWVERNSYSCSVVHEGLHNHHTTKSFSRTPGK
notes: also called biologic anti-IgE^0
IC50 (read off the curve) [4]: ~30 nM

Results, then the binder that gave them:

Kd [1]: 1820 nM
Kd [2]: 1800 nM
B1: derCD23 (receptor)
chain: SGFVCNTCPEKWINFQRKCYYFGKGTKQWVHARYACDDMEGQLVSIHSPEEQDFLTKHASHTGSWIGLRNLDLKGEFIWVDGSHVDYSNWAPGEPTSRSQGEDCVMMRGSGRWNDAFCDRKLGAWVCDRLATCTPPASEGSAE
notes: also called derCD23 monomer; CD23 monomer

Extracellular supernatant (IgE remaining prior to buffer change), 1 nM IgE with 0.01 nM biologic, percentage of IgE [3]: 7%
Extracellular supernatant (IgE remaining prior to buffer change), 1 nM IgE with 0.05 nM biologic, percentage of IgE [3]: 4.5%
Extracellular supernatant (IgE remaining prior to buffer change), 1 nM IgE with 0.5 nM biologic, percentage of IgE [3]: 1%
Extracellular supernatant (IgE remaining), 1 nM IgE with 0.01 nM biologic, percentage of IgE [3]: 8%
Extracellular supernatant (IgE remaining), 1 nM IgE with 0.05 nM biologic, percentage of IgE [3]: 5%
Extracellular supernatant (IgE remaining), 1 nM IgE with 0.5 nM biologic, percentage of IgE [3]: 1%
IC50 of inhibition of IgE mediated degranulation [3]: 10 to 30 nM
IgE Intracellular retention, 1 nM IgE with 0.01 nM biologic, percentage of IgE [3]: 92%
IgE Intracellular retention, 1 nM IgE with 0.05 nM biologic, percentage of IgE [3]: 94%
IgE Intracellular retention, 1 nM IgE with 0.5 nM biologic, percentage of IgE [3]: 98%
IgE Intracellular retention, 1 nM IgE with 1 nM biologic, percentage of IgE [3]: 95%
IgE Intracellular retention, 1 nM IgE with 5 nM biologic, percentage of IgE [3]: 93%
IgE Intracellular retention, 1 nM IgE with 50 nM biologic, percentage of IgE [3]: 90%
IgE Intracellular retention, 1 nM IgE with 500 nM biologic, percentage of IgE [3]: 79%
IgE Intracellular retention, 1 nM IgE with 1000 nM biologic, percentage of IgE [3]: 65%
IgE Intracellular retention, 1 nM IgE with 2000 nM biologic, percentage of IgE [3]: 52%
IgE Uptake, 1 nM IgE with 0.01 nM biologic, percentage of IgE [3]: 92%
IgE Uptake, 1 nM IgE with 0.05 nM biologic, percentage of IgE [3]: 95%
IgE Uptake, 1 nM IgE with 0.5 nM biologic, percentage of IgE [3]: 99%
IgE Uptake, 1 nM IgE with 1 nM biologic, percentage of IgE [3]: 100%
IgE Uptake, 1 nM IgE with 5 nM biologic, percentage of IgE [3]: 100%
IgE Uptake, 1 nM IgE with 50 nM biologic, percentage of IgE [3]: 100%
IgE Uptake, 1 nM IgE with 500 nM biologic, percentage of IgE [3]: 100%
IgE Uptake, 1 nM IgE with 1000 nM biologic, percentage of IgE [3]: 100%
IgE Uptake, 1 nM IgE with 2000 nM biologic, percentage of IgE [3]: 100%
efficacy of inhibition of IgE mediated degranulation of basophils [3]: 90%
B2: hCD23-G4S3-mIgG2a Fc (Fc fusion)
chain: EASDLLERLREEVTKLRMELQVSSGFVCNTCPEKWINFQRKCYYFGKGTKQWVHARYACDDMEGQLVSIHSPEEQDFLTKHASHTGSWIGLRNLDLKGEFIWVDGSHVDYSNWAPGEPTSRSQGEDCVMMRGSGRWNDAFCDRKLGAWVCDRLATCTPPASEGSAESMGPDSRPDPDGRLPTPSAPLHSGGGGSGGGGSGGGGSASISAMVRSPRGPTIKPCPPCKCPAPNLEGGPSVFIFPPKIKDVLMISLSPIVTCVVVDVSEDDPDVQISWFVNNVEVHTAQTQTHREDYNSTLRVVSALPIQHQDWMSGKAFACAVNNKDLPAPIERTISKPKGSVRAPQVYVLPPPEEEMTKKQVTLTCMVTDFMPEDIYVEWTNNGKTELNYKNTEPVLDSDGSYFMYSKLRVEKKNWVERNSYSCSVVHEGLHNHHTTKSFSRTPGK
modifications: here or on the partner: In the flow-cytometry assays the IgE carried AlexaFluor-488 dye at unspecified positions. The letters do not show this.

IC50 (read off the curve) [4]: ~10 nM
B3: hCD23-G4S3-mIgG2a Fc (Fc fusion)
chain: EASDLLERLREEVTKLRMELQVSSGFVCNTCPEKWINFQRKCYYFGKGTKQWVHARYACDDMEGQLVSIHSPEEQDFLTKHASHTGSWIGLRNLDLKGEFIWVDGSHVDYSNWAPGEPTSRSQGEDCVMMRGSGRWNDAFCDRKLGAWVCDRLATCTPPASEGSAESMGPDSRPDPDGRLPTPSAPLHSGGGGSGGGGSGGGGSASISAMVRSPRGPTIKPCPPCKCPAPNLEGGPSVFIFPPKIKDVLMISLSPIVTCVVVDVSEDDPDVQISWFVNNVEVHTAQTQTHREDYNSTLRVVSALPIQHQDWMSGKAFACAVNNKDLPAPIERTISKPKGSVRAPQVYVLPPPEEEMTKKQVTLTCMVTDFMPEDIYVEWTNNGKTELNYKNTEPVLDSDGSYFMYSKLRVEKKNWVERNSYSCSVVHEGLHNHHTTKSFSRTPGK
notes: It has two CD23 monomers, paired through the IgG Fc; also called anti-IgE^3; IgE^3

IC50 (read off the curve) [4]: ~7 nM
B5: anti-IgE^4 (Fc fusion)
chain: EASDLLERLREEVTKLRMELQVSSGFVCNTCPEKWINFQRKCYYFGKGTKQWVHARYACDDMEGQLVSIHSPEEQDFLTKHASHTGSWIGLRNLDLKGEFIWVDGSHVDYSNWAPGEPTSRSQGEDCVMMRGSGRWNDAFCDRKLGAWVCDRLATCTPPASEGSAESMGPDSRPDPDGRLPTPSAPLHSGGGGSGGGGSGGGGSGGGGSASISAMVRSPRGPTIKPCPPCKCPAPNLEGGPSVFIFPPKIKDVLMISLSPIVTCVVVDVSEDDPDVQISWFVNNVEVHTAQTQTHREDYNSTLRVVSALPIQHQDWMSGKAFACAVNNKDLPAPIERTISKPKGSVRAPQVYVLPPPEEEMTKKQVTLTCMVTDFMPEDIYVEWTNNGKTELNYKNTEPVLDSDGSYFMYSKLRVEKKNWVERNSYSCSVVHEGLHNHHTTKSFSRTPGK
notes: also called biologic anti-IgE^4

— patent US20220332789A1 (COMBIKINE BIOTECHNOLOGY, published 2022)
